Assay results from patent US10792332B2, “Anti-infective properties of antifreeze protein” (priority 2013, dated 2020).
“And” between values parts separate entries of the source, which are not always exact repeats. Equal entries are not always repeated. “Also recorded” adds a separate entry of the source. Ends that are not written are not given here.

What was measured:
S. aureus [1] = assay: Static biofilm assay (safranin stain); assay type: cell-based, Staphylococcus aureus; details: preliminary data
Procedure: Biofilm assays were performed as described^38. Briefly, planktonic overnight cultures of S. aureus were diluted in glucose-supplemented tryptic soy broth or brain-heart-infusion broth (1% glucose; TSB/G or BHI/G) to OD600=0.015 and distributed into 96 well plates (Corning, NC). After an 18 h incubation at 37° C. bacterial growth in each well was confirmed by the measurement of OD600 using a spectrophotometer (BioTek, VT). The supernatant was discarded and the wells were washed with water twice. Bacteria associated with the well surface were dried and stained with safranin. The dye was then dissolved in 33% acetid acid and quantified at OD415 nm using a spectrophotometer (BioTek, VT). Bacterial attachment to catheter materials pre-incubated with peptides was investigated. Vialon™ catheters (BD Biosciences, NJ) were incubated for 18 h in 0.1 mg/ml peptides dissolved in PBS, washed with PBS and incubated in bacterial suspensions for 24 h. Following removal of non-adherent bacteria with repeated washing, adherent bacteria and biofilms were dissociated using sonication in PBS. Bacterial titers were quantified by plating serial dilutions on agar plates and were calculated per as CFU per catheter.

S. aureus [2] = assay: Bacterial growth in vitro (OD600); assay type: cell-based, Staphylococcus aureus; details: 0.1 mg/ml in BHI/G, 37° C., SA113 or USA300 JE2
Procedure: A stationary culture of S. aureus was diluted to OD600=0.01 in BHI medium and supplemented with 0.2 mg/ml recombinant IAFGP-GST, BSA or PBS as control. Bacterial growth was measured over time at OD600 using a spectrophotometer. Growth curves from 5 independent experiments were pooled±SEM.
A stationary culture of S. aureus SA113 or USA300 JE2 was diluted in BHI/G to OD600=0.01 supplemented with 0.1 mg/ml IAFGP-GST, GST, P1, sP1 or media alone. Following static incubation at 37° C. for 24 h bacterial density was measured at OD600 using a spectrophotometer.

[3] = Murine subcutaneous catheter implant model; assay type: in vivo, C57Bl/6 mice; details: under the conditions used
Procedure: FIG. 5A depicts bacterial attachment to intravenous catheters that had been incubated in PBS, GST, GST-IAFGP, P2 and P21c before transferring into S. aureus SA113 suspensions. Bacterial attachment was quantified after sonication by plating serial dilutions. Data were pooled from 3 independent experiments (One-Way-ANOVA; *: p<0.05). FIG. 5B presents bacterial attachment to intravenous catheters that had been incubated in PBS, P1 or sP1 and implanted subcutaneously on the dorsal flanks of C57Bl/6 mice. 72 hrs after catheter inoculation with 5×10^5 CFU S. aureus SA113 the catheters were removed and the attached bacteria were quantified by plating serial dilutions. […]
Seven days after catheter inoculation with S. aureus SA113, the catheters were removed, and the attached bacteria were quantified by plating serial dilutions.
(§1) Cecal ligation and puncture surgery was performed as described^26,41 Mice were anesthesized using isoflurane inhalation and the cecum was exteriorized through a peritoneal midline incision. […] Body surface temperature was measured dorsally using an infrared thermometer. A retro-orbital blood sample was taken daily and the cytokine levels of TNF-α, IL-6, IL12b and MCP-1 were measured using enzyme-linked immunosorbent assay (ELISA) kits (eBiosciences, San Diego, Calif.). […] The number of attached bacteria was determined by plating serial dilutions on agar plates.

S. aureus SA113 [4] = assay: Bacterial attachment to pre-incubated intravenous catheters in vitro; assay type: cell-based, Staphylococcus aureus
Procedure: FIG. 5A depicts bacterial attachment to intravenous catheters that had been incubated in PBS, GST, GST-IAFGP, P2 and P21c before transferring into S. aureus SA113 suspensions. Bacterial attachment was quantified after sonication by plating serial dilutions. Data were pooled from 3 independent experiments (One-Way-ANOVA; *: p<0.05). FIG. 5B presents bacterial attachment to intravenous catheters that had been incubated in PBS, P1 or sP1 and implanted subcutaneously on the dorsal flanks of C57Bl/6 mice. 72 hrs after catheter inoculation with 5×10^5 CFU S. aureus SA113 the catheters were removed and the attached bacteria were quantified by plating serial dilutions. CFU data were pooled from 3 independent experiments (One-Way-ANOVA with Tukey's post-test; **: p<0.01). […] S. aureus are indicated by black triangles, biofilm matrix are indicated by empty triangles.
Biofilm assays were performed as described^38. Briefly, planktonic overnight cultures of S. aureus were diluted in glucose-supplemented tryptic soy broth or brain-heart-infusion broth (1% glucose; TSB/G or BHI/G) to OD600=0.015 and distributed into 96 well plates (Corning, NC). […] The dye was then dissolved in 33% acetid acid and quantified at OD415 nm using a spectrophotometer (BioTek, VT). […] Bacterial titers were quantified by plating serial dilutions on agar plates and were calculated per as CFU per catheter.

S. aureus SA113 [5] = assay: S. aureus microinjection challenge of iafgp-expressing fruit flies; assay type: in vivo, D. melanogaster
Procedure: FIGS. 3A-3E present transgenic expression of iafgp in fruit flies and susceptibility of transgenic flies to S. aureus challenge in vivo. […] Survival data were pooled from 6 independent experiments (Log-rank test; p<0.001). […] Bacterial colonization of individual flies was determined by plating serial dilutions. Data was pooled from 3 independent experiments (One-Way-ANOVA with Tukey's post-test; ***: p<0.001; **: p<0.01; *: p<0.05). FIG. 3C presents PNAG production in iafgp-transgenic and control flies challenged with S. aureus SA113. PNAG levels of pools of 5 flies were assessed at different time points by immunoblot. Average signal intensities of 3 independent experiments±SEM with representative immunoblot images below are shown (Two-Way-ANOVA with Sidak's post test;[…]). FIG. 3D presents PNAG production in iafgp-transgenic and control flies challenged with S. aureus SA113. Paraffin sections of whole flies were stained for bacteria and PNAG. Black triangles point to bacteria, empty triangles indicate PNAG staining. […] Survival data were pooled from 4 independent experiments (Log-rank test; not significant).
Iafgp-expressing and mCherry-expressing flies were generated as described^13. D. melanogaster flies were maintained using standard procedures^39. The fly colony was sustained at 21-23° C. Following infection, flies were incubated at 29° C. to increase UAS-mediated transgene expression. Five to 9 day old females were used for experiments. Twenty to 30 flies per vial were infected by microinjection as reviewed in^40 and survival was monitored. Microinjection was performed into the thorax below the wing using a Nanojet microinjector (Drummond Scientific, PA). Bacteria in stationary growth phase were diluted in PBS to OD600=0.01 or OD600=0.1 and 9.2 nl were injected, corresponding to an infectious dose of 50-100 to 500-1000 CFU per fly respectively. For CFU analysis individual flies were homogenized in […] using a bullet blender (Nextadvance, NY) and steel beads. Serial dilutions were plated on brain-heart-infusion agar plates and incubated at 37° C. overnight. Endogenous fly bacteria only grew to pinprick-size overnight, allowing visual distinction of the fast-growing bacteria used for infection (data not shown). mRNA was isolated from individual flies homogenized in […] using RNAeasy kit (Qiagen, Hilden, Germany). Following DNAse digestion with Turbo DNA-free Kit (Ambion/Life Technologies, NY) RNA was reverse-transcribed with iScript cDNA synthesis kit (BioRad, CA) and gene expression was quantified by qRT-PCR using iQ SYBR Green Supermix (BioRad, CA).

Listeria monocytogenes = assay: Needle prick infection of iafgp-expressing fruit flies; assay type: in vivo, D. melanogaster
Text: (§2) A 0.6 μm tungsten needle was dipped into a 1:10 diluted stationary culture of L. monocytogenes and flies were pricked in the right lateral side of the thorax. Fly survival was monitored visually over the course of infection. Uninfected controls (n.i.; n=40) were pricked with a needle dipped into PBS. Data were pooled from 2 independent experiments (Log-rank test; p<0.005). […] Groups of 20-25 flies were transferred into vials containing only a piece of absorbing tissue. Stationary bacterial cultures, resuspended in 4% sucrose and diluted 2-fold were used to soak the paper, controls received only sucrose solution. Every 3 days the flies were transferred into new vials with freshly soaked tissue, and bacterial survival was measured. […] Uninfected controls (n.i.; n=40) were housed in vials with 4% sucrose. Data were pooled from 2 independent experiments (Log-rank test; p<0.001/p<0.001).

Pseudomonas entomophila = assay: Oral infection of iafgp-expressing fruit flies; assay type: in vivo, D. melanogaster
Text: as §2

Serratia marcescens = assay: Oral infection of iafgp-expressing fruit flies; assay type: in vivo, D. melanogaster
Text: as §2

polymicrobial sepsis = assay: Cecal ligation and puncture (polymicrobial sepsis) in iafgp-transgenic mice; assay type: in vivo
Text: Iafgp was constitutively expressed under control of the chicken β-actin promoter in an iafgp-transgenic mouse line. The promoter region was excised from pβAct-CAT 9 (ATCC, VA) using XhoI and HindIII and subcloned into the pEGFP-1 vector (Clontech, CA). EGFP was removed from pβAct-EGFP-1 by digestion with BamHI and NotI resulting in pβAct-1. Iafgp was then PCR-amplified using oligomers iafgp BamHI F and iafgp NotI R, introducing the corresponding restriction sites. The PCR fragment was digested and cloned into linearized pβAct-1, resulting in pβAct-iafgp. For microinjection, the transgene fragment containing the β-actin promoter and iafgp gene was excised from pβAct-iafgp by digestion with XhoI and AflII restriction enzymes and gel purified. Microinjection was performed in […] (C57BL/6×C3H) and mice were genotyped by PCR analysis of tail biopsies using IAFP4qRTF and IAFP4qRTR. mRNA expression of iafgp was confirmed in multiple tissues using the same primers for qRT-PCR. Transgenic iafgp-expressing mice were backcrossed for 8 generations to C57Bl/6 mice (Charles River, Mass.). Heterozygous experimental mice of 6-12 weeks were age- and sex-matched with wild-type littermates and wild-type C57Bl/6 as control. All mice were housed at 20-22° C. with water and food ad libitum. Animal handling was performed according to protocols approved by the Yale animal care and use committee.
as §1, with “incision. Seventy-five percent of the cecum was ligated and punctured through and through with a 21G hypodermic needle.” for “incision.”

S. aureus USA300 JE2 = assay: Intranasal MRSA challenge of iafgp-transgenic mice; assay type: in vivo; details: iafgp-transgenic mice vs controls
Procedure: Iafgp-expressing mice were infected with USA300 JE2. 1.2×10^8 CFU logarithmic growth phase bacteria per mouse were applied intranasally in 50 μl PBS and murine survival was monitored.

[6] = iafgp-expressing flies vs controls

With “PARKARAATPATPATAATPATAAT (listed as Ixodes scapularis) [P0]” the anti-biofilm activity (S. aureus [1]) was “anti-biofilm activity has been identified”.

With “AAAAATATAAARRAAAAPTTAKTT [sP1, P2 randomized, soluble, negative control]” the “bacterial density/viability at OD600 after 24 h static incubation” value (S. aureus [2]) was “Neither proteins nor peptides affected bacterial growth”.

With PARKARAATAATAATAATAATAAT [P1] the toxicity in vivo [3] was “no signs of toxicity”.

B1: IAFGP: Ixodes scapularis anti-freeze glycoprotein, 251 amino acids, SEQ ID NO: 3; also expressed transgenically in flies and mice (protein, listed as Ixodes scapularis)
chain: MTTLLRLTILIVAVAGVLGSSKRAARAATPATAATPATPATAATPAIAATPATAATPATAATPARKARAATPATPATPATAATPATAATPARKARAATAATPATPATAATPARKARAATPATPATAATPATAATPARKARAATPATPATAATPATAATPARKARAATPATPATAATPATAATPARKARAATPATPATAATAATPARKARAATAATPATPATAATPARKARAATPATAATAATPATAATAAA
With B1 the “bacterial attachment / biofilm formation on intravenous catheters in vitro” value (S. aureus SA113 [4]) was “altered bacterial attachment; also recorded: reduced biofilm formation”, the “lowering of catheter-associated bacteria in comparison to untreated controls” value (S. aureus SA113 [4]; catheters incubated in protein or peptide solution, then S. aureus suspension) was 9 fold and the “pathogen titers in flies over the course of infection” value (S. aureus SA113 [5]; iafgp-expressing flies) was “remained stable over the course of infection”. For the same molecule, the “PNAG quantity during S. aureus infection of flies” value (S. aureus SA113 [5]; [6]) was “reduced”, the “fly survival after S. aureus microinjection” value (S. aureus SA113 [5]; [6]) was “enhanced survival” and the “effect of IAFGP on flies challenged with PNAG-deficient S. aureus ΔicaADBC mutant” value (S. aureus SA113 [5]; ΔicaADBC mutant) was “completely abrogated”. For the same molecule, the “fly survival after L. monocytogenes infection” value (Listeria monocytogenes) was “increased fly survival”, the “fly survival after P. entomophila infection” value (Pseudomonas entomophila) was “increased fly survival” and the “fly survival after S. marcescens infection” value (Serratia marcescens) was “increased fly survival”. The “general health and activity (disease score)” value (polymicrobial sepsis; 24-36 h after surgery, transgenic vs control mice) was “significantly better general health and activity”, the “extended (average) survival compared to controls after CLP” value (polymicrobial sepsis; iafgp-expressing mice) was 40% and 35% and the “hypothermia and serum cytokine release of MCP-1, TNF-α, IL6 and IL12p40” value (polymicrobial sepsis; iafgp-expressing mice vs controls) was “delayed”. The “survival after intranasal MRSA challenge” value (S. aureus USA300 JE2) was “increased survival; also recorded: enhanced survival”.
